{"source": "patent US20250049930A1", "about": "(CEDARS SINAI MEDICAL CENTER, published 2025)", "key": {"[1]": {"molecular_target": "T1, cereblon (E3 ubiquitin ligase)", "T1 chain": "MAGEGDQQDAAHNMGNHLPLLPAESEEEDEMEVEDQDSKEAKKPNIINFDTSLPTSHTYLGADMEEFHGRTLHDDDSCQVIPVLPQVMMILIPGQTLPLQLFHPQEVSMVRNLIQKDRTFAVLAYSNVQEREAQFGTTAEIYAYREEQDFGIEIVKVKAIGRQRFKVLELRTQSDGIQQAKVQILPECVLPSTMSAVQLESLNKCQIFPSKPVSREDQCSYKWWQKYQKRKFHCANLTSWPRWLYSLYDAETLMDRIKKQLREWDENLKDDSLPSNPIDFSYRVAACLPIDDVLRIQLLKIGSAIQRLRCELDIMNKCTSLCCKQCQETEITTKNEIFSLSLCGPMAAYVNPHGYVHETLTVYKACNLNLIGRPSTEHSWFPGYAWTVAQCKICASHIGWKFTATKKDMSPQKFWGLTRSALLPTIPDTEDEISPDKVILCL", "assay": "SPR imaging (PlexArray HT), cereblon printed on chip; binary complex of cereblon and PF"}, "[2]": {"molecular_target": "T1, cereblon (E3 ubiquitin ligase)", "assay": "SPR imaging (PlexArray HT), cereblon printed on chip; ternary complex of cereblon, FoxP3 and P-FoxP3 (recombinant FoxP3 present)"}}, "note": "Primed or numbered codes have the meaning given here. PEG4′ = polyethylene glycol linker with 4 oxyethylene units", "data": [{"binder": "{pomalidomide-PEG4′}-RDFQSFRKMWPFFAM-OH (Conjugate of the P60 peptide with the small molecule pomalidomide; also called P-FoxP3; PROTAC for FoxP3)", "note": "[Proteolysis-targeting chimera (PROTAC) targeting FoxP3 (Pomalidomide-PEG4-RDFQSFRKMWPFFAM)]", "values": [{"measurement": "Kd", "setting": "[1]", "value": 987, "unit": "nM"}, {"measurement": "Kd", "setting": "[2]", "value": 434, "unit": "nM"}]}]}
